Test results: patent US20250000936A1, “TREATMENT OF GEOGRAPHIC ATROPHY” (Apellis Pharmaceuticals, Inc., priority 2021, published 2025)
Several values for one entry are separate records, joined by “and”; a condition that tells them apart may be missing. Equal values may be shown once.

Tested on: patients with geographic atrophy (GA) secondary to age-related macular degeneration (AMD)
Assay: OAKS Phase 3 study: safety
[1] = PEOM (every other month), 12 months
[2] = PEOM (every other month), 18 months
[3] = PEOM (every other month), N=212

Experimental: All randomized subjects returned every month to the clinical site for assessments and additional pegcetacoplan or sham injections according to their randomization scheme until Month 12. From Month 12 onwards, subjects return to the clinical site based on their randomized treatment schedule (monthly or EOM) and follow the treatment regimen and assessments outlined in the Visit Schedule until Month 24. Safety was assessed throughout the study by a number of evaluations including: monitoring of AEs, preinjection and postinjection monitoring, blood and urine samples collected, physical examination, vital signs, and follow-up phone calls. Blood samples were also be collected for anti-therapeutic antibodies, genotyping, and clinical repository (if the subject consented to this portion).
The Safety set consisted of all subjects randomized who received at least one injection of pegcetacoplan or sham. Subjects were analyzed according to the actual treatment received. […] This population was used for all safety analyses.

With “Poly(oxy-1,2-ethanediyl), α-hydro-ω-hydroxy-, 15,15′-diester with N-acetyl-L-isoleucyl-L-cysteinyl-L-valyl-1-methyl-L-tryptophyl-L-glutaminyl-L-α-aspartyl-L-tryptophylglycyl-L-alanyl-L-histidyl-L-arginyl-L-cysteinyl-L-threonyl-2-[2-(2-aminoethoxy) ethoxy]acetyl-N^6-carboxy-L-lysinamide cyclic (2->12)-(disulfide) [pegcetacoplan]” the “All TEAEs, Total events, M” value [1] was 721, the “All TEAEs, patients” value [1] was 160 (75.5%) n (%) and the “Cases of MNV (FA) detected by reading center but not reported by Investigator as AE” value [1] was 3. The “Non-ocular TEAEs, Patients” value [1] was 127 (59 9%) n (%), the “Non-ocular TEAEs, events M” value [1] was 412 and the “Ocular TEAE in study eye Conjunctival haemorrhage, events M” value [1] was 16. For the same substance, the “Ocular TEAE in study eye Conjunctival haemorrhage, patients” value [1] was 13 (6.1%) n (%), the “Ocular TEAE in study eye Eye Pain, events M” value [1] was 14 and the “Ocular TEAE in study eye Eye Pain, patients” value [1] was 12 (5.7%) n (%). For the same substance, the “Ocular TEAE in study eye Vitreous floaters, events M” value [1] was 20, the “Ocular TEAE in study eye Vitreous floaters, patients” value [1] was 15 (7.1%) n (%) and the “Ocular TEAEs in study eye, Patients” value [1] was 97 (45.8%) n (%) and 97 (45.8) n (%). For the same substance, the “Ocular TEAEs in study eye, events M” value [1] was 208, the “Serious ocular TEAE Endophthalmitis, events M” value [1] was 3 and the “Serious ocular TEAE Endophthalmitis, patients” value [1] was 3 (1.4%) n (%). The “Serious ocular TEAE Macular hole, patients” value [1] was 0 n (%), the “Serious ocular TEAE Optic ischemic neuropathy, patients” value [1] was 0 n (%) and the “Serious ocular TEAE Papilledema, patients” value [1] was 0 n (%). For the same substance, the “Serious ocular TEAE Retinal detachment, events M” value [1] was 1, the “Serious ocular TEAE Retinal detachment, patients” value [1] was 1 (0.5%) n (%) and the “Serious ocular TEAEs in the study eye, events M” value [1] was 4. The “Serious ocular TEAEs in the study eye, patients” value [1] was 4 (1.9%) n (%), the “Sum of investigator-determined eAMD and reading center cases not reported by investigators” value [1] was “(6.1%)” and the “Sum of investigator-determined eAMD and reading center cases not reported by investigators” value (PEOM (every other month), 12 months, count) was 13. For the same substance, the “All TEAEs, Total events, M” value [2] was 965, the “All TEAEs, patients” value [2] was 177 (83.5%) n (%) and the “Non-ocular TEAEs, M” value [2] was 567. For the same substance, the “Non-ocular TEAEs, Patients” value [2] was 158 (74.5%) n (%), the “Ocular TEAEs in study eye, M” value [2] was 270 and the “Ocular TEAEs in study eye, Patients” value [2] was 114 (53.8%) n (%). For the same substance, the “Discontinued study prior to Month 12, reason Adverse Event” value [3] was 5 (2.4%) n (%), the “Discontinued study prior to Month 12, reason Death” value [3] was 3 (1.4%) n (%) and the “Discontinued study prior to Month 18, reason Adverse event” value [3] was 4 (1.9%) n (%). For the same substance, the “Discontinued study prior to Month 18, reason Death” value [3] was 7 (3.3%) n (%), the “Patients with new onset fellow eye eAMD” value (PEOM (every other month), through 18 months, 173 patients without baseline fellow eye CNV) was 5 (2.9%) n (%) and the “All TEAEs, Total events, M” value (PM (monthly), 12 months) was 751. The “All TEAEs, patients” value (PM (monthly), 12 months) was 170 (79.8%) n (%), the “Cases of MNV (FA) detected by reading center but not reported by Investigator as AE” value (PM (monthly), 12 months) was 2 and the “Non-ocular TEAEs, Patients” value (PM (monthly), 12 months) was 136 (63.8%) n (%). For the same substance, the “Non-ocular TEAEs, events M” value (PM (monthly), 12 months) was 390, the “Ocular TEAE in study eye Conjunctival haemorrhage, events M” value (PM (monthly), 12 months) was 30 and the “Ocular TEAE in study eye Conjunctival haemorrhage, patients” value (PM (monthly), 12 months) was 18 (8.5%) n (%). For the same substance, the “Ocular TEAE in study eye Eye Pain, events M” value (PM (monthly), 12 months) was 17, the “Ocular TEAE in study eye Eye Pain, patients” value (PM (monthly), 12 months) was 15 (7.0%) n (%) and the “Ocular TEAE in study eye Vitreous floaters, events M” value (PM (monthly), 12 months) was 10. The “Ocular TEAE in study eye Vitreous floaters, patients” value (PM (monthly), 12 months) was 9 (4.2%) n (%), the “Ocular TEAEs in study eye, Patients” value (PM (monthly), 12 months) was 108 (50.7%) n (%) and the “Ocular TEAEs in study eye, events M” value (PM (monthly), 12 months) was 256. The “Serious ocular TEAE Dry AMD, patients” value (PM (monthly), 12 months) was 0 n (%), the “Serious ocular TEAE Endophthalmitis, events M” value (PM (monthly), 12 months) was 3 and the “Serious ocular TEAE Endophthalmitis, patients” value (PM (monthly), 12 months) was 1 (0.5%) n (%). The “Serious ocular TEAE Macular hole, patients” value (PM (monthly), 12 months) was 0 n (%), the “Serious ocular TEAE Optic ischemic neuropathy, events M” value (PM (monthly), 12 months) was 3 and the “Serious ocular TEAE Optic ischemic neuropathy, patients” value (PM (monthly), 12 months) was 1 (0.5%) n (%). The “Serious ocular TEAE Papilledema, events M” value (PM (monthly), 12 months) was 3, the “Serious ocular TEAE Papilledema, patients” value (PM (monthly), 12 months) was 1 (0.5%) n (%) and the “Serious ocular TEAE Retinal detachment, patients” value (PM (monthly), 12 months) was 0 n (%). For the same substance, the “Serious ocular TEAE Vitritis, patients” value (PM (monthly), 12 months) was 0 n (%), the “Serious ocular TEAEs in the study eye, events M” value (PM (monthly), 12 months) was 3 and the “Serious ocular TEAEs in the study eye, patients” value (PM (monthly), 12 months) was 3 (1.4%) n (%). The “Sum of investigator-determined eAMD and reading center cases not reported by investigators” value (PM (monthly), 12 months) was “(6.1%)”, the “Sum of investigator-determined eAMD and reading center cases not reported by investigators” value (PM (monthly), 12 months, count) was 13 and the “All TEAEs, Total events, M” value (PM (monthly), 18 months) was 1037. For the same substance, the “All TEAEs, patients” value (PM (monthly), 18 months) was 185 (86.9%) n (%), the “Non-ocular TEAEs, M” value (PM (monthly), 18 months) was 573 and the “Non-ocular TEAEs, Patients” value (PM (monthly), 18 months) was 152 (71.4%) n (%). For the same substance, the “Ocular TEAEs in study eye, M” value (PM (monthly), 18 months) was 325, the “Ocular TEAEs in study eye, Patients” value (PM (monthly), 18 months) was 126 (59.2%) n (%) and the “Discontinued study prior to Month 12, reason Adverse Event” value (PM (monthly), N=213) was 3 (1.4%) n (%). For the same substance, the “Discontinued study prior to Month 12, reason Death” value (PM (monthly), N=213) was 7 (3.3%) n (%), the “Discontinued study prior to Month 18, reason Adverse event” value (PM (monthly), N=213) was 6 (2.8%) n (%) and the “Discontinued study prior to Month 18, reason Death” value (PM (monthly), N=213) was 12 (5.6%) n (%).
